# Reference: a protein production outcome set (Wang et al. 2014)
# Assay: label from the status in PepcDB records
row,Sequence,protein production
1,MISAHCNLRLLCSSDSSASASQVAGTTEVVENLVTNDNSPNIPEAIDRLFSDIANINRESMAEIADIQIEEMAVNLWNWALTIGGGWLVNEEQKIRLHYVACKLLSMCEASFASEQSIQRLIMMNMRIGKEWLDAGNFLIADECFQAAVASLEQLYVKLIQRSSPEADLTMEKITVESDHFRVLSYQAESAVAQGDFQRASMCVLQCKDMLMRLPQMTSSLHHLCYNFGVETQKNNKYEESSFWLSQSYDIGKMDKKSTGPEMLAKVLRLLATNYLDWDDTKYYDKALNAVNLANKEHLSSPGLFLKMKILLKGETSNEELLEAVMEILHLDMPLDFCLNIAKLLMDHERESVGFHFLTIIHERFKSSENIGKVLILHTDMLLQRKEELLAKEKIEEIFLAHQTGRQLTAESMNWLHNILWRQAASSFEVQNYTDALQWYYYSLRFYSTDEMDLDFTKLQRNMACCYLNLQQLDKAKEAVAEAERHDPRNVFTQFYIFKIAVIEGNSERALQAIITLENILTDEESEDNDLVAERGSPTMLLSLAAQFALENGQQIVAEKALEYLAQHSEDQEQVLTAVKCLLRFLLPKIAEMPESEDKKKEMDRLLTCLNRAFVKLSQPFGEEALSLESRANEAQWFRKTAWNLAVQCDKDPVMMREFFILSYKMSQFCPSDQVILIARKTCLLMAVAVDLEQGRKASTAFEQTMFLSRALEEIQTCNDIHNFLKQTGTFSNDSCEKLLLLYEFEVRAKLNDPLLESFLESVWELPHLETKTFETIAIIAMEKPAHYPLIALKALKKALLLYKKEEPIDISQYSKCMHNLVNLSVPDGASNVELCPLEEVWGYFEDALSHISRTKDYPEMEILWLMVKSWNTGVLMFSRSKYASAEKWCGLALRFLNHLTSFKESYETQMNMLYSQLVEALSNNKGPVFHEHGYWSKSD,failed
2,NSTWSGESKTLVLSNLSYSATEETLQEVFEKATFIKVPQNQNGKSKGYAFIEFASFEDAKEALNSCNKREIEGRAIRLELQGPRGSPN,not failed
3,MSLSSLLIIFSSSFMALFPVINPLGNGFVVNGFFADLDPSQRKTAIQKLTINFIMIGVGTLLIGHLFLLIFGLAIPVIQLGGGILICKTAIELLGDSNSSDKEGTSQNVDSFKWKSIEQKIFYPITFPISIGPGSISVIFTLMASASVKGKLLHTGINYLVIALVIICMAGILYVFLSQGQRIIQKLGPVGNQIINKLVAFFTFCIGIQISVTGISQIFHLNIL,failed
4,MNTLFFSRQQYWLALIFGCLLVFLAASLGHGQWLDYAQRVATLDEPLSRLRWIVGDISEVAFYKHELPALGLLLGACLAHWAQLRGYRWQGFAICYGSGLWPWVFTSSLLGLLLSHVLWGWTLASGTWQPTFVAFVSLPAAMVLLFGAGWRVTITGALLGALLVTPAGLLMVNYLCYPLQLPVVVGNVSGMAVASVVAFILCKRFPSWVRQCGEPTVVAPVVNQPDYGVVWTLRRVLADFSEAPFFGNELASLGLLLGVLLAYLLSPAALSYGSMLVMQMVAGQALASLVGVVLWRGQWKARGWYPTYIPIVSIVPAAVLTHGGSWQVVVASAVLGALVAPPLAVAITQRLPAYVHGYIGNVVSMAICTLGIVPVVGLLVGGEA,failed
5,MEELVGLLRIRVKRGINLAQRDTLSSDPFVVITMGSQKLKTRVVENNCNPEWNEELTLALRHPDEPVNLIVYDKDTFTSHDKMGDAKIDIKPFLEVHKMGLQELPDGTEIKRVVPNRENCLAEASSIVSNNGKIVQNMILLLRNVECGEVEIQLEWIDIPGSRGL,failed
6,MPYDWKRTETRQELRLWPHNSLPPRGAAGFVLLVFALGLLPLIAVLGSPLLWGLLPFLLLAVAGLWLAIEANYRQRRILEVLTLDPERAHLVRHNPRGAVQEWDCNRYWARATLHAHGGPVPHYVTLQGCGREVEIGAFLSEDERIALYDDLREMLSK,failed
7,MRGWICVKLTKLNIKKYRAPIYKYALANVNLRSAKSTNSSIITVIPQGAKMEVLDEEDDWIKVMYNSQEGYVYKDLVSVSEYAWSNLNLREDKSTTSNIITVIPEKSRVEVLQVDGDWSKVVYDDKIGYVFNYFLSIDGNKPNELDYKYFYTDMIKFVNENNIKSTSDYLIVTDLRNKYTYIFKKDNGGWGQLYKWQCTIGKPETPTITGIFYISGRKPSFGTDEYSVKYATRIKGGYYYHSVLYDSTGSYIIDGRLGEALSHGCIRLSTENAKWIYDNIPDTTTVIIH,failed
8,HFLLPFAEIPEQFPASKAVLMEHFYRRMRKRFGYLMTADGKPEGGQWNFDADNRNKLKSPDLLQLPTPLCFDNPVASIKARIERHRIPSIGQVGESLLWPINRAQALSLLAHFCQICLPNFGRFQDAMTAQHPHRWSLYHSRLSFALNSKLLSPREVIEATISAYRAAQGQISLAQVEGFVRQILGWREYVRGMYWSN,failed
9,MDALQLLTWSLILYLFASLASLFLLGLDRLAIKLSGITSLVGGVIGIISGITQLHAGVTLVARFAPPFEFADLTLRMDSLSAFMVLVISLLVVVCSLYSLTYMREYEGKGAAAMGFFMNIFIASMVALLVMDNAFWFIVLFEMMSLSSWFLVIARQDKTSINAGMLYFFIAHAGSVLIMIAFLLMGRESGSLDFASFRTLSLSPGLASAVFLLAFFGFGAKAGMMPLHSWLPRAHPAAPSHASALMSGVMVKIGIFGILKVAMDLLAQTGLPLWWGILVMAIGAISALLGVLYALAEQDIKRLLAWSTVENVGIILLAVGVAMVGLSLHDPLLTVVGLLGALFHLLNHALFKGLLFLGAGAIISRLHTHDMEKMGALAKRMPWTAAACLIGCLAISAIPPLNGFISEWYTWQSLFSLSRVEAVALQLAGPIAMVMLAVTGGLAVMCFVKMYGITFCGAPRSTHAEEAQEVPNTMIVAMLLLAALCVLIALSASWLAPKIMHIAHAFTNTPPATVASGIALVPGTFHTQVTPSLLLLLLLAMPLLPGLYWLWCRSRRAAFRRTGDAWACGYGWENAMAPSGNGVMQPLRVVFSALFRLRQQLDPTLRLNKGLAHVTARAQSTEPFWDERVIRPIVSATQRLAKEIQHLQSGDFRLYCLYVVAALVVLLIAIAV,failed
10,MAMNLPADNEGKIKLAMSILVTIINDTGVPRNIRRAAANALTHLRDPRLSPAVRAANAISALEEVSQDPNMPFYARTRIWQVITILETVRD,failed
11,MQSYSDSKPGGATFALFETEHLKANIRRALVEAVLSPWQRTFLSDVLSKLERYGNRARLSHKQLLKLNEILGGNGTPRQDRVTTSRTTRHTRRPRFRSPSFLSRQIRWSRRRLARDAVVVALIVMVGLLYSVFETGPVQSFLGTVGKSSHVMGPVDQAFTVTDGDTVHVAGERAGTRLVGFNTPEKFSPQCEYERKLGERASSRLRELVKSPNLQLTKVPCACPAGSEGTDACNHGRSCGVLKVDGRDVGQILIGEGLAVPFICEGNRCPRTPRPWCGQQS,failed
12,MKQKQFYFIYVFLLSMTFLGACSKDSPNELIPNTIVKIEIDKLPGKRIYFIGEELDVSDMTLKVFYSNETSEIVPVKKDEVTGFNSTVPENDQILEVHKGSFTVTFKIQVLINDIQAISIKTLPSKTVYTLGEPLSLSNMVLEINYADGTIKENSAPSADWVQGFNSSVPAQLQIVTLELDGKQVSFDVQILPVKVDGDKVVSVIDSDFTSITFPDGIRTIGSKAFENKNIKASELLCPASLSTIEQAAFAYCRNLKIVDLSHTSIKELPEEAFLFSGIKKIALPASLEIVGKEAFYGCTDLNVIDISHTSVKELQNGAFGKSGISSISLPSTFKIVGASAFIETKNLKELTLPEGSEVIDLEAFSGSSIQKVTLPNTIYHIDRSFYSCPELTTIETYGTRTTPSPVDRTAAIVSECFNHSPKLTVLKIPASIVKIGISALNKCQVKTLILPASVKALDFNAFGNAVSLDEISLMSPTMVTADYYPVPPGIQKIRVPQNLVETYKQNKAWKPFAEKIVAL,failed
13,MYKLVLIRHGESTWNKENRFTGWVDVDLTEQGNREARQAGQLLKEAGYTFDIAYTSVLKRAIRTLWHVQDQMDLMYVPVVHSWRLNERHYGALSGLNKAETAAKYGDEQVLVWRRSYDTPPPALEPGDERAPYADPRYAKVPREQLPLTECLKDTVARVLPLWNESIAPAVKAGKQVLIAAHGNSLRALIKYLDGISDADIVGLNIPNGVPLVYELDESLTPIRHYYLGDQEAIAKAQAAVAQQGKSAA,not failed
